Literature values, collected in PMC12990809.

Legend:
Test in all cases: pulldown
Conditions in all cases: 20 nM protein, 1.5 uM RNA pool; 20 mM HEPES pH 7.8, 70 mM KCl, 10 mM NaCl, 10% glycerol, 2 mM DTT, 0.1 ug/uL BSA; 30 min, 4 C (protocol of this paper; not …); cited from earlier work
[1] = target: PABPC3 (Homo sapiens) (UniProt Q9H361)
[2] = target: mub (Drosophila melanogaster) (UniProt M9NGB9)
[3] = target: T1, RBM42 (Homo sapiens) (UniProt Q9BTD8)
T1 sequence: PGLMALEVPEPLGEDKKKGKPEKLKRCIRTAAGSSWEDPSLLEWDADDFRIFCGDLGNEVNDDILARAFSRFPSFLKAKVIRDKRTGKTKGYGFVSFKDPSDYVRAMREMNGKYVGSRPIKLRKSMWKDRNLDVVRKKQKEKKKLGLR

[4] = target: FXR1 (Homo sapiens) (UniProt P51114)
[5] = target: T2, CG2931 (Drosophila melanogaster) (UniProt Q7JZA8)
T2 sequence: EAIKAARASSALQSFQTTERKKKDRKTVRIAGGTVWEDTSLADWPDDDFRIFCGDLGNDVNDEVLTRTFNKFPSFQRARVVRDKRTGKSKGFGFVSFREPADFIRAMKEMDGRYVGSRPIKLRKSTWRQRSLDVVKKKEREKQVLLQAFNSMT

[6] = target: T3, PABPN1 (Homo sapiens) (UniProt Q86U42)
T3 sequence: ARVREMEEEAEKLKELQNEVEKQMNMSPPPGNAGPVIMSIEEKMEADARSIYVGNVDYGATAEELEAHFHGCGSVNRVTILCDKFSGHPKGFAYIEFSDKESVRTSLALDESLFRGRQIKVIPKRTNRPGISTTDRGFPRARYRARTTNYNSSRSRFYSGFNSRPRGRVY

[7] = target: T4, qkr58E-1 (Drosophila melanogaster) (UniProt Q7JVR3)
T4 sequence: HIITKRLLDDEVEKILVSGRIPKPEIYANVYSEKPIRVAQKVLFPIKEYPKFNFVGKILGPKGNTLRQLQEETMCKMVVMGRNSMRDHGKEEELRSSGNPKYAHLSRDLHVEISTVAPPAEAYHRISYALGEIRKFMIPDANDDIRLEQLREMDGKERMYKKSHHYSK

[8] = target: T5, RBMS1 (Homo sapiens) (UniProt P29558)
T5 sequence: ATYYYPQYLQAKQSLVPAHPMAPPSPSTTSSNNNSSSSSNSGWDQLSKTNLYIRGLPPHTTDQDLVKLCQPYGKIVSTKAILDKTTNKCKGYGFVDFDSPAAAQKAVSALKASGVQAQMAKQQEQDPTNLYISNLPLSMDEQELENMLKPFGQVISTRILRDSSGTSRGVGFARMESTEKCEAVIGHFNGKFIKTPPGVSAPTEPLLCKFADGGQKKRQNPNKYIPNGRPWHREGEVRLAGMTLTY

[9] = target: T6, ESRP2 (Homo sapiens) (UniProt Q9H6T0)
T6 sequence: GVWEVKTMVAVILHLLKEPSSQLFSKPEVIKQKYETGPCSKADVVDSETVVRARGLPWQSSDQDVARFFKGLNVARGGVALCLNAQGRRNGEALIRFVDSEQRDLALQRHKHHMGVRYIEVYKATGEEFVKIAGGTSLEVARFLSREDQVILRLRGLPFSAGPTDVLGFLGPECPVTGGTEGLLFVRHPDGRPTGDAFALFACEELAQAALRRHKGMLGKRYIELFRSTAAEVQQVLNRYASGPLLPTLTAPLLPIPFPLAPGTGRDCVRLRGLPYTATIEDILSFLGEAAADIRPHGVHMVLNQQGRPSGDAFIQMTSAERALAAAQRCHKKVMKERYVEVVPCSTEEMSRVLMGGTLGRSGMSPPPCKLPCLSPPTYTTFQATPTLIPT

[10] = target: T7, CPEB2 (Homo sapiens) (UniProt Q7Z5Q1)
T7 sequence: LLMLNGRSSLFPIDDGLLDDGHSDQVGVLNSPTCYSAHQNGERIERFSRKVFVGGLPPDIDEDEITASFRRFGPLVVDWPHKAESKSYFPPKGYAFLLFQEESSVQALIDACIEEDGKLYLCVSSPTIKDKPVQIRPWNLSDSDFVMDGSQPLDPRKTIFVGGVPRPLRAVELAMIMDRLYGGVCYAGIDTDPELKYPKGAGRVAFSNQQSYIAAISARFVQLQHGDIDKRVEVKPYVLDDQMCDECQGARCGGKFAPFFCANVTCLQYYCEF

[11] = target: pAbp (Drosophila melanogaster) (UniProt P21187)
[12] = target: PABPC1 (Homo sapiens) (UniProt P11940)
[13] = target: T8, CNOT4 (Homo sapiens) (UniProt O95628)
T8 sequence: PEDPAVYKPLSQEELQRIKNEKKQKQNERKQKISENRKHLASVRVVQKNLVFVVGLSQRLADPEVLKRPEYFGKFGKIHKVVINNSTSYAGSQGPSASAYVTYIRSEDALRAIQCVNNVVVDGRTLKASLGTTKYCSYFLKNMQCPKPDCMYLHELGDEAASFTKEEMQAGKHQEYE

[14] = target: T9, B52 (Drosophila melanogaster) (UniProt P26686)
T9 sequence: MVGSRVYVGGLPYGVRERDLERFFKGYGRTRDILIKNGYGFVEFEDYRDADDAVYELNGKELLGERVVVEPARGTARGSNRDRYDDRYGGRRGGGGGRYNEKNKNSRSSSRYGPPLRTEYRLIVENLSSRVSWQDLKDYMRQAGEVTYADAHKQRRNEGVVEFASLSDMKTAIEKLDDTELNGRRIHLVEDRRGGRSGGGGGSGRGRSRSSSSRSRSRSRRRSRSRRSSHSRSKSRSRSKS

[15] = target: T10, HNRNPH2 (Homo sapiens) (UniProt P55795)
T10 sequence: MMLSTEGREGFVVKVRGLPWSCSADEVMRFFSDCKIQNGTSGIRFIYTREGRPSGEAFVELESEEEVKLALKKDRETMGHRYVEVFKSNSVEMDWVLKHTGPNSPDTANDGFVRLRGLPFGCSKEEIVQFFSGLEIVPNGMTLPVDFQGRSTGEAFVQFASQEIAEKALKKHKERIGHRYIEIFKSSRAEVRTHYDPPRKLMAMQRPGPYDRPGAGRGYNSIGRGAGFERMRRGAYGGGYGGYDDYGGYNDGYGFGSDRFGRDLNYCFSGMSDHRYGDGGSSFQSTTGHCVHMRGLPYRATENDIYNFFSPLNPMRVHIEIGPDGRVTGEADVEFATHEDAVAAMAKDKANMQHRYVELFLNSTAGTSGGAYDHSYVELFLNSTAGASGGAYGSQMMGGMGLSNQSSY

[16] = target: T11, rin (Drosophila melanogaster) (UniProt A0ACM8PZ16)
T11 sequence: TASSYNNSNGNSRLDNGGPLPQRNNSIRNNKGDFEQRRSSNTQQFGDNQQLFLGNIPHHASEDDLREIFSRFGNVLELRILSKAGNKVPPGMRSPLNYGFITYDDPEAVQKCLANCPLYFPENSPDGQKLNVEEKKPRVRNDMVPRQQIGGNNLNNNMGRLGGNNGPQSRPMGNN

[17] = target: T12, CG7804 (Drosophila melanogaster) (UniProt Q7JW23)
T12 sequence: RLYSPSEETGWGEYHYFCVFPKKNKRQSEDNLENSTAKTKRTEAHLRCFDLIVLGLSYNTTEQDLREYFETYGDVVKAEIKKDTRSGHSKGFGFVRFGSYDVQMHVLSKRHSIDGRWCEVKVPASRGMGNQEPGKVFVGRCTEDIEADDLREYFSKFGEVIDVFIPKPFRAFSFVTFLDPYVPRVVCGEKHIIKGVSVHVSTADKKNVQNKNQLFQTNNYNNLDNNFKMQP

[18] = target: T13, A1CF (Homo sapiens) (UniProt Q9NQ94)
T13 sequence: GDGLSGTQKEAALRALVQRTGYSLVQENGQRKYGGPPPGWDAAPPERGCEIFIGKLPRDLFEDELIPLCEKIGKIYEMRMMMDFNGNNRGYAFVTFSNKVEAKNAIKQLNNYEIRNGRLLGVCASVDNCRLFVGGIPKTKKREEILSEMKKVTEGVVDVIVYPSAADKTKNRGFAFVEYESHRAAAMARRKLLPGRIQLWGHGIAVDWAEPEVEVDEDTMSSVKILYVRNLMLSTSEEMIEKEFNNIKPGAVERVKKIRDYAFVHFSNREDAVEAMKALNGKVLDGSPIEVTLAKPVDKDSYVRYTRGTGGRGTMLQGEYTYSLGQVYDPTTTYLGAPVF

[19] = target: T14, CG5213 (Drosophila melanogaster) (UniProt Q7JY27)
T14 sequence: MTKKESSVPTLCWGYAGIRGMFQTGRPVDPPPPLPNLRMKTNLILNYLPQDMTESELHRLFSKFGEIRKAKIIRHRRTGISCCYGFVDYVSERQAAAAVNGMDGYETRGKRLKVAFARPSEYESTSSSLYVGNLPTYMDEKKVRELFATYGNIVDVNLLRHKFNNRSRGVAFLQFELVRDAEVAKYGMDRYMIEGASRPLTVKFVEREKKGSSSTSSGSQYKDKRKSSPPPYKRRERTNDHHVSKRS

[20] = target: T15, papi (Drosophila melanogaster) (UniProt Q9VQ91)
T15 sequence: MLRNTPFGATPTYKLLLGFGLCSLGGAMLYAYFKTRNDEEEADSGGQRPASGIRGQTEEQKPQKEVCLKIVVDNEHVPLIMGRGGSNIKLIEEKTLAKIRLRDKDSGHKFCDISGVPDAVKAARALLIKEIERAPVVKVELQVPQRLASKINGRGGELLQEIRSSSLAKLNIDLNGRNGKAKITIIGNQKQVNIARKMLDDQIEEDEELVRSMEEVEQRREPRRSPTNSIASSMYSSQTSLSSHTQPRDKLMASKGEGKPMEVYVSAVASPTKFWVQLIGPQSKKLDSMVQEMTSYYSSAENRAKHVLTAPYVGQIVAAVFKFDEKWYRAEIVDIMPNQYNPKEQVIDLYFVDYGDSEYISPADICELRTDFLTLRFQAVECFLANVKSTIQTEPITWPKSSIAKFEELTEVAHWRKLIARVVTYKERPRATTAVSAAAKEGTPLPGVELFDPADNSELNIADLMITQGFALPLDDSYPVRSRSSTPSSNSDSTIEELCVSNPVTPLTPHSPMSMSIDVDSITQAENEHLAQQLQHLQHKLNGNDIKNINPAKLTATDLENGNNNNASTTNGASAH

[21] = target: T16, snf (Drosophila melanogaster) (UniProt P43332)
T16 sequence: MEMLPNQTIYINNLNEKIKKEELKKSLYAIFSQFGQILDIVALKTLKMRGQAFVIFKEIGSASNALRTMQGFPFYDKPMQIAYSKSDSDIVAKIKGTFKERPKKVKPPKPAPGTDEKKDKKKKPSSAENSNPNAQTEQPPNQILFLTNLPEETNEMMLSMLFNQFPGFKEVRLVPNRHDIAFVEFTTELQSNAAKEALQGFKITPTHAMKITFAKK

[22] = target: T17, CPEB4 (Homo sapiens) (UniProt Q17RY0)
T17 sequence: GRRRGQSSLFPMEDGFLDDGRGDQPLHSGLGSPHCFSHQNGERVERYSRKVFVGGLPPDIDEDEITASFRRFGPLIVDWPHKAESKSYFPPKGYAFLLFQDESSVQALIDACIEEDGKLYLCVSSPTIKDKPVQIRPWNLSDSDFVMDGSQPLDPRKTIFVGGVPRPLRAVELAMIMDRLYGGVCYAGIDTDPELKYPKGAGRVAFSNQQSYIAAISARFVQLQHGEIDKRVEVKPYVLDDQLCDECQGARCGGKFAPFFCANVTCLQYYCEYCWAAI

[23] = target: RALY (Homo sapiens) (UniProt Q9UKM9)
Chain of RALY (Homo sapiens) (Q9UKM9 1-136): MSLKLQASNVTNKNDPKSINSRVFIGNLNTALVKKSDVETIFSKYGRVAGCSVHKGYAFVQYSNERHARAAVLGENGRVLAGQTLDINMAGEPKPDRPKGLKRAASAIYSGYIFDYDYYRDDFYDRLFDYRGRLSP

Chain of mub (Drosophila melanogaster) (M9NGB9 entry or part of it): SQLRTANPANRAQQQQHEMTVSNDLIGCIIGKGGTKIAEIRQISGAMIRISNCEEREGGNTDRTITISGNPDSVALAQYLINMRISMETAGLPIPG
Chain of pAbp (Drosophila melanogaster) (P21187 1-408): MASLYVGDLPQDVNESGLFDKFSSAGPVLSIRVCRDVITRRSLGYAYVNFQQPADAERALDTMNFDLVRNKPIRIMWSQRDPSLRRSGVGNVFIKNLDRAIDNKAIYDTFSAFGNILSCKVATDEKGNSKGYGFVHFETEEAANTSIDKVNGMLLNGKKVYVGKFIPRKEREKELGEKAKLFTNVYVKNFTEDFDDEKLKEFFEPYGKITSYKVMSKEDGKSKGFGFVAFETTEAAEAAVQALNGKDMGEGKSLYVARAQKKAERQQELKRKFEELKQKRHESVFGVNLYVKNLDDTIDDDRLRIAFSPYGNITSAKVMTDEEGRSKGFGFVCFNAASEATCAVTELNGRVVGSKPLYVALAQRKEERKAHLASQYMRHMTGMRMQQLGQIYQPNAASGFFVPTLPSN
Chain of FXR1 (Homo sapiens) (P51114 170-401): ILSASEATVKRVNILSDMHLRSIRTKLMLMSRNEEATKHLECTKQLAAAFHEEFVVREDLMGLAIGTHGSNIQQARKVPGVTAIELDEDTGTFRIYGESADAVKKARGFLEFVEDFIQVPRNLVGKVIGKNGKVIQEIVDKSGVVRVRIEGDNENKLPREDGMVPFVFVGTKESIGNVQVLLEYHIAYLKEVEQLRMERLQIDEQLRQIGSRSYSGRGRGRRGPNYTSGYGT
Chain of PABPC1 (Homo sapiens) (P11940 1-414): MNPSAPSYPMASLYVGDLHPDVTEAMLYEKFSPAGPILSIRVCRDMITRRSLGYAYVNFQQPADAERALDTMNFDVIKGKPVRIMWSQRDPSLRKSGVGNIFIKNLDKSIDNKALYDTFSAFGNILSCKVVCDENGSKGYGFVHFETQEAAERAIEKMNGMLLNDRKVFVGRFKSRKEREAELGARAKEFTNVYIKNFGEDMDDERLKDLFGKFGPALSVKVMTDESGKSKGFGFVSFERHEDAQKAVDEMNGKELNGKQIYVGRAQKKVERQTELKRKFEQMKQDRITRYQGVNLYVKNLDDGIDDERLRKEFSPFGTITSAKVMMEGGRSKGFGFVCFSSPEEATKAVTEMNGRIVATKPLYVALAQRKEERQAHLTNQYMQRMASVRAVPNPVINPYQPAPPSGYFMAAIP
Chain of PABPC3 (Homo sapiens) (Q9H361 1-414): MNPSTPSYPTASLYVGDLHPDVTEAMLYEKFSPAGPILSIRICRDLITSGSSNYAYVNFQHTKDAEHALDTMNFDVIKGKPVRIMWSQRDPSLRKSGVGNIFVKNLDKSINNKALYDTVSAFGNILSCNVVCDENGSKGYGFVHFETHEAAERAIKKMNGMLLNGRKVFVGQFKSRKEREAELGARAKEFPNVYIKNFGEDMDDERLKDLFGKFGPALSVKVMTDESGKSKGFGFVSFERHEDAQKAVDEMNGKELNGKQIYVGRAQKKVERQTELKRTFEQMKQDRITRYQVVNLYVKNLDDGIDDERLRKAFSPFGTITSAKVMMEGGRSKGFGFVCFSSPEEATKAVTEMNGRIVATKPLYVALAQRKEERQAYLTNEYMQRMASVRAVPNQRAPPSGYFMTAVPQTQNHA

In the case of AAAACC [RNAcompete motif RNCMPT00153], the binding signal (z-score (mean of top ten 7-mers)) [1] is listed as 8.16.

In the case of AACCCU [RNAcompete motif RNCMPT00137], the binding signal (z-score (mean of top ten 7-mers)) [2] is listed as 10.1.

In the case of AACUANG [RNAcompete motif RNCMPT00151], the binding signal (z-score (mean of top ten 7-mers)) [3] is listed as 11.2.

In the case of AAUGACAA [RNAcompete motif RNCMPT00161], the binding signal (z-score (mean of top ten 7-mers)) [4] is listed as 6.01.

For ACUAAG [RNAcompete motif RNCMPT00147], the binding signal (z-score (mean of top ten 7-mers)) [5] is listed as 11.6.

For AGAAGA [RNAcompete motif RNCMPT00157], the binding signal (z-score (mean of top ten 7-mers)) [6] is listed as 11.4.

For ANAAUAA [RNAcompete motif RNCMPT00142], the binding signal (z-score (mean of top ten 7-mers)) [7] is listed as 6.18.

In the case of AUAUAG [RNAcompete motif RNCMPT00152], the binding signal (z-score (mean of top ten 7-mers)) [8] is listed as 7.69.

For AUGGGGA [RNAcompete motif RNCMPT00150], the binding signal (z-score (mean of top ten 7-mers)) [9] is given as 7.36.

For CCUUUUU [RNAcompete motif RNCMPT00012], the binding signal (z-score (mean of top ten 7-mers)) [10] is given as 10.8.

For GAAAA [RNAcompete motif RNCMPT00139], the binding signal (z-score (mean of top ten 7-mers)) [11] is listed as 13.

For GAAAAA [RNAcompete motif RNCMPT00155], the binding signal (z-score (mean of top ten 7-mers)) [12] is given as 11.3.

For GACAGA [RNAcompete motif RNCMPT00156], the binding signal (z-score (mean of top ten 7-mers)) [13] is given as 19.

In the case of GGAGGGG [RNAcompete motif RNCMPT00134], the binding signal (z-score (mean of top ten 7-mers)) [14] is listed as 7.73.

In the case of GGGAGGG [RNAcompete motif RNCMPT00160], the binding signal (z-score (mean of top ten 7-mers)) [15] is given as 16.8.

For GGGUGGG [RNAcompete motif RNCMPT00138], the binding signal (z-score (mean of top ten 7-mers)) [16] is listed as 9.16.

In the case of GNGUG [RNAcompete motif RNCMPT00146], the binding signal (z-score (mean of top ten 7-mers)) [17] is given as 8.15.

In the case of UAAUUG [RNAcompete motif RNCMPT00001], the binding signal (z-score (mean of top ten 7-mers)) [18] is given as 12.6.

For UACUUU [RNAcompete motif RNCMPT00010], the binding signal (z-score (mean of top ten 7-mers)) [19] is listed as 11.8.

In the case of UNUGUGU [RNAcompete motif RNCMPT00011], the binding signal (z-score (mean of top ten 7-mers)) [20] is given as 17.7.

In the case of UUGCACA [RNAcompete motif RNCMPT00145], the binding signal (z-score (mean of top ten 7-mers)) [21] is listed as 14.

For UUUUUU [RNAcompete motif RNCMPT00158], the binding signal (z-score (mean of top ten 7-mers)) [22] is listed as 14.8.

For UUUUUU [RNAcompete motif RNCMPT00159], the binding signal (z-score (mean of top ten 7-mers)) [23] is listed as 16.1.
